Assay results: US20220227830A1, “QD DOSING OF GIP RECEPTOR AGONIST PEPTIDE COMPOUNDS AND USES THEREOF” (Takeda Pharmaceutical Company Limited, priority 2020, published 2022)
Starred links: 1 amine or outer side, 2 acyl side, 3 side chain; linkers in the order of their positions; H or OH if unused. Non-standard residues stand in square brackets, D forms with d. Groups on a side chain read outwards from the residue. No end group written: not given here. *: point of attachment. 2OEGgEgE‑C15DA = 2OEGgEgE-C15 diacid linker-lipid on the Lys side chain, O=C(O)CCCCCCCCCCCCCC(=O)N[C@@H](CCC(=O)N[C@@H](CCC(=O)NCCOCCOCC(=O)NCCOCCOCC(=O)*)C(=O)O)C(=O)O; C15 diacid = O=C(O)CCCCCCCCCCCCCC(=O)*; γGlu = O=C(O)[C@H](CCC(=O)[*:2])N[*:1]; NMeY = CN[C@@H](Cc1ccc(O)cc1)C(=O)O; AEEA = NCCOCCOCC(=O)O; Aib = CC(C)(N)C(=O)O

T1: full-length human GIPR with an N-terminal FLAG tag (human, UniProt P48546 22-466)
T1 sequence (looked up): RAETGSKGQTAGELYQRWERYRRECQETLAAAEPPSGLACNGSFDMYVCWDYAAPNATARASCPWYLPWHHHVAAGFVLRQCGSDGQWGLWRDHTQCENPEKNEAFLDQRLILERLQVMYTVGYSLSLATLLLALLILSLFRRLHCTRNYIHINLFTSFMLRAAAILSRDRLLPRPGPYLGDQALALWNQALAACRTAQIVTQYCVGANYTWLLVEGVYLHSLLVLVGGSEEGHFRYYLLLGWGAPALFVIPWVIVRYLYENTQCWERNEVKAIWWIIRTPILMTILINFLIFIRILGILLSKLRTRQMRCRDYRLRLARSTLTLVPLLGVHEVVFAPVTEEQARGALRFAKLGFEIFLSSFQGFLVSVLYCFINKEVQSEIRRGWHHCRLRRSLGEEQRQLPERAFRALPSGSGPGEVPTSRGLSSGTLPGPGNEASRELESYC

B1: Compound 50 (peptide)
peptide: Y[Aib]EGTFISDYSIAKDR[Aib]AQ[Aib]NFVNWLLAQRPSSGAPPPS-OH
modifications: not fully specified (residues 1, 14); also: Me-Tyr methyl position not given here
B2: Compound 54 (peptide)
peptide: [NMeY][Aib]EGTFISDYSIALDRKAQ[Aib]NFVNWLLAQSPSSGAPPPS-OH
modifications: not fully specified (residue 17)
B3: Compound 59 (peptide)
peptide: Y[Aib]EGTFISDYSI[Aib]KDR[Aib]AQ[Aib]NFVNWLLAQR-NH2
modifications: not fully specified (residues 1, 14)
B4: Compound 79 (peptide)
peptide: [NMeY][Aib]EGTFISDYSIAK([G5-γGlu-C15 diacid])DR[Aib]AQ[Aib]DFVNWLLAQSPSSGAPPPS-NH2
B5: Compound 86 (peptide)
peptide: [NMeY][Aib]EGTFISDYSIALDR[Aib]AQ[Aib]K([AEEA-γGlu-γGlu-C15 diacid])FVNWLLAQR-NH2
modifications: N-terminus assumed
SMILES: CC[C@H](C)[C@H](NC(=O)[C@H](CO)NC(=O)[C@H](Cc1ccc(O)cc1)NC(=O)[C@H](CC(=O)O)NC(=O)[C@H](CO)NC(=O)[C@@H](NC(=O)[C@H](Cc1ccccc1)NC(=O)[C@@H](NC(=O)CNC(=O)[C@H](CCC(=O)O)NC(=O)C(C)(C)NC(=O)[C@H](Cc1ccc(O)cc1)NC)[C@@H](C)O)[C@@H](C)CC)C(=O)N[C@@H](C)C(=O)N[C@@H](CC(C)C)C(=O)N[C@@H](CC(=O)O)C(=O)N[C@@H](CCCNC(=N)N)C(=O)NC(C)(C)C(=O)N[C@@H](C)C(=O)N[C@@H](CCC(N)=O)C(=O)NC(C)(C)C(=O)N[C@@H](CCCCNC(=O)COCCOCCNC(=O)CC[C@H](NC(=O)CC[C@H](NC(=O)CCCCCCCCCCCCCC(=O)O)C(=O)O)C(=O)O)C(=O)N[C@@H](Cc1ccccc1)C(=O)N[C@H](C(=O)N[C@@H](CC(N)=O)C(=O)N[C@@H](Cc1c[nH]c2ccccc12)C(=O)N[C@@H](CC(C)C)C(=O)N[C@@H](CC(C)C)C(=O)N[C@@H](C)C(=O)N[C@@H](CCC(N)=O)C(=O)N[C@@H](CCCNC(=N)N)C(N)=O)C(C)C
B6: Compound 111 (peptide)
peptide: [NMeY][Aib]EGTFISDYSI[Aib]LDR[Aib]K(2OEGgEgE‑C15DA)Q[Aib]NFVNWLLAQSPSSGAPPPS-NH2
modifications: N-terminus assumed
SMILES: CC[C@H](C)[C@H](NC(=O)[C@H](Cc1ccccc1)NC(=O)[C@@H](NC(=O)CNC(=O)[C@H](CCC(=O)O)NC(=O)C(C)(C)NC(=O)[C@H](Cc1ccc(O)cc1)NC)[C@@H](C)O)C(=O)N[C@@H](CO)C(=O)N[C@@H](CC(=O)O)C(=O)N[C@@H](Cc1ccc(O)cc1)C(=O)N[C@@H](CO)C(=O)N[C@H](C(=O)NC(C)(C)C(=O)N[C@@H](CC(C)C)C(=O)N[C@@H](CC(=O)O)C(=O)N[C@@H](CCCNC(=N)N)C(=O)NC(C)(C)C(=O)N[C@@H](CCCCNC(=O)COCCOCCNC(=O)COCCOCCNC(=O)CC[C@H](NC(=O)CC[C@H](NC(=O)CCCCCCCCCCCCCC(=O)O)C(=O)O)C(=O)O)C(=O)N[C@@H](CCC(N)=O)C(=O)NC(C)(C)C(=O)N[C@@H](CC(N)=O)C(=O)N[C@@H](Cc1ccccc1)C(=O)N[C@H](C(=O)N[C@@H](CC(N)=O)C(=O)N[C@@H](Cc1c[nH]c2ccccc12)C(=O)N[C@@H](CC(C)C)C(=O)N[C@@H](CC(C)C)C(=O)N[C@@H](C)C(=O)N[C@@H](CCC(N)=O)C(=O)N[C@@H](CO)C(=O)N1CCC[C@H]1C(=O)N[C@@H](CO)C(=O)N[C@@H](CO)C(=O)NCC(=O)N[C@@H](C)C(=O)N1CCC[C@H]1C(=O)N1CCC[C@H]1C(=O)N1CCC[C@H]1C(=O)N[C@@H](CO)C(N)=O)C(C)C)[C@@H](C)CC
B7: Compound 113 (peptide)
peptide: [NMeY][Aib]EGTFISDYSI[Aib]LDR[Aib]AQ[Aib]K([Gly-Gly-Glu-Glu-Glu-C15 diacid])FVNWLLAQK-NH2
B8: Compound 120 (peptide)
peptide: [NMeY][Aib]EGTFISDYSI[Aib]KDR[Aib]AQ[Aib]NFVNWLLAQRPSSGAPPPS-NH2
modifications: not fully specified (residue 14)
B9: Compound 142 (peptide)
peptide: YXEGTFISDYSIXXDRXAQXDFVNWLLAQRG
modifications: Me-Tyr1; Aib 2,13,17,20; Km14 = Lys(GGGGG-C15 diacid) (Table 3 prints the linker 'GS'); C-term OH
B10: Compound 143 (peptide)
peptide: Me-Y[Aib]EGTFISDYSIALDR[Aib]AQ[Aib]KFVNWLLAQKG-OH
modifications: not fully specified (residues 1, 21)
B11: Compound 144 (peptide)
peptide: Me-Y[Aib]EGTFISDYSIALDR[Aib]KQ[Aib]NFVNWLLAQSPSSGAPPPS-NH2
modifications: not fully specified (residues 1, 18)
B12: Compound 148 (peptide)
peptide: Me-Y[Aib]EGTFISDYSIALDR[Aib]AQ[Aib]KFVNWLLAQKG-OH
modifications: not fully specified (residues 1, 21)
B13: Compound 14 (peptide)
peptide: [NMeY][Aib]EGTFISDYSIALDR[Aib]AQ[Aib]K([AEEA-AEEA-γGlu-γGlu-C15 diacid])FVNWLLAQR-NH2
modifications: not fully specified (N-terminus); also: C-term NH2 in mods, C_TER column prints OH
B14: Compound 17 (peptide)
peptide: Me-Y[Aib]EGTFISDYSIALDR[Aib]K([AEEA-AEEA-γGlu-γGlu-C15 diacid])Q[Aib]NFVNWLLAQSPSSGAPPPS-NH2
B15: Compound 19 (peptide)
peptide: Me-Y[Aib]EGTFISDYSI[Aib]K([AEEA-AEEA-γGlu-γGlu-C15 diacid])DR[Aib]AQ[Aib]NFVNWLLAQRPSSGAPPPS-NH2
B16: Compound 20 (peptide)
peptide: Me-Y[Aib]EGTFISDYSI[Aib]LDRKAQ[Aib]NFVNWLLAQRPSSGAPPPS-NH2
modifications: not fully specified (residues 1, 17)
B17: Compound 21 (peptide)
peptide: Me-Y[Aib]EGTFISDYSI[Aib]LDR[Aib]AQ[Aib]NFVNWLLAQK([2OEG-γGlu-γGlu-C15 diacid])PSSGAPPPS-NH2

Target: T1, full-length human GIPR with an …
Experiment: cell-based or functional assay

Row | Binder | Human GIPR cAMP, HEK293T EC50
1 | B1 | 0.4 pM
2 | B2 | 0.1 pM
3 | B3 | 0.4 pM
4 | B4 | 0.2 pM
5 | B5 | 1.4 pM
6 | B6 | 0.4 pM
7 | B7 | 0.4 pM
8 | B8 | 0.4 pM
9 | B9 | 0.1 pM
10 | B10 | 0.4 pM
11 | B11 | 0.1 pM
12 | B12 | 1.1 pM
13 | B13 | 0.4 pM
14 | B14 | 0.4 pM
15 | B15 | 0.4 pM
16 | B16 | 0.3 pM
17 | B17 | 0.3 pM
